Consider four molecules from patent publication US20250369024A1, “Acyloin Condensation Reactions, Enzymes, and Products Thereof” (Mojia Biotech Pte. Ltd., priority 2023, published 2025).

In one series the test system is AC440. The series is described as follows: Tolerance of 2HIB in AC440. The format is cell-based, E. coli. Conditions: M9-LB; cell density at 600 nm. On the procedure: To check the tolerance of 2HIB, AC440 was grown in 5 mL of M9-LB supplemented with different concentration of 2HIB in 50 mL falcon tube, the cell density was monitored at 600 nm. The impact on growth could be observed at 25 g/L of 2HIB, while the AC440 is still able to grow and maintain its metabolic activity at the concentration of 2HIB at 75 g/L (FIG. 21), considering the cells will not suffer such high concentration of 2HIB at early stage, indicating AC440 is a good host for 2HIB production.

The subject of the next series is glyoxylate. The series is described as follows: Growth-coupled selection of alanine dehydrogenases in glycine auxotroph strain. The format is cell-based, E. coli. Conditions: glycolate instead of glycine supplementation.
Another series has as its system 2-hydroxyisobutyryl-CoA. Put plainly: In vitro purified enzyme isobutene glycol production from acetone and formate, ACR comparison. Type of series: biochemical. Conditions: 1 μM ACR and 1 μM FucO; 50 mM formate and 200 mM acetone. On the procedure: The enzymes acyl-CoA transferase CaAbfT, HACS ApbHACS, acyl-CoA reductase ACR (LmACR, BmACDH, PtACDH, RpPduP, StEutE), and NADH-dependent alcohol dehydrogenase FucO were overexpressed and purified as described above. In vitro purified enzyme reactions for condensation of acetone and formyl-CoA was comprised of 100 mM KPi pH 7.4, 10 mM MgCl2, 0.15 mM TPP, 4 mM NADH, 2 mM acetyl-CoA, 1 μM ApbHACL, 2 μM CaAbfT, 50 mM formate and 200 mM acetone. The mixture was incubated at 30° C. for 3 min, and then 1 μM ACR and 1 μM FucO was added, and then the reactions were incubated at 30° C. for another 5 min unless otherwise specified. 2 μL of 10 M NaOH was added to 45 μL mixture for 30 min, followed by 3 μL 10 N H2SO4, and then applied for HPLC analysis as described above.

The test system of a further series is formate. The series is described as follows: Screening of formate activation enzymes with acetone and formate using growing cultures (2HIB). The format is cell-based, E. coli. Particulars: 100 mM acetone and 20 mM formate; growing cells. An excerpt: Since formate activation is a required step for formate utilization, we further evaluated enzymes catalyzing this reaction. Acyl-CoA synthetase (ACS) enzymes are one of the three explored routes for formate activation, which can directly generate formyl-CoA from formate with the consumption of 2 ATP equivalents (ATP is converted to AMP). […] Therefore, ACS variants were further evaluated using the new established growing cell platform with ApbHACS overexpression. In this platform, formyl-CoA generated through formate activation enzymes is further condensed with non-toxic substrate acetone to produce 2-hydroxyisobutyrate (2HIB) (FIG. 23C).
The screening of a larger group of formate activation enzymes in actively growing cells was conducted using the M9-LB medium contains 6.78 g/L Na2HPO4, 3 g/L KH2PO4, 1 g/L NH4Cl, 0.5 g/L NaCl, 2 mM MgSO4, 100 μM CaCl2), 15 μM thiamine-HCl, 10 g/L tryptone, and 5 g/L yeast extract additionally supplemented with the micronutrient solution of Neidhardt^68. […] The cells were pelleted by centrifugation and the supernatant analyzed by HPLC as described below. The expected product 2-hydroxyisobutyric acid was detected in the media indicating the performance of corresponding formate activation enzymes. […]

Turning to `CC(C)(O)C(=O)O` [2HIB, 2-hydroxyisobutyric acid], in the series with AC440, the “2HIB concentration at which AC440 is still able to grow and maintain metabolic activity” value came out at 75 g/L; the “2HIB concentration at which impact on growth could be observed” value was 25 g/L.

B1: BsAld: alanine dehydrogenase from Bacillus subtilis, Uniprot Q08352 (protein, UniProt Q08352 1-378, looked up)
Alanine dehydrogenase: MIIGVPKEIKNNENRVALTPGGVSQLISNGHRVLVETGAGLGSGFENEAYESAGAEIIADPKQVWDAEMVMKVKEPLPEEYVYFRKGLVLFTYLHLAAEPELAQALKDKGVTAIAYETVSEGRTLPLLTPMSEVAGRMAAQIGAQFLEKPKGGKGILLAGVPGVSRGKVTIIGGGVVGTNAAKMAVGLGADVTIIDLNADRLRQLDDIFGHQIKTLISNPVNIADAVAEADLLICAVLIPGAKAPTLVTEEMVKQMKPGSVIVDVAIDQGGIVETVDHITTHDQPTYEKHGVVHYAVANMPGAVPRTSTIALTNVTVPYALQIANKGAVKALADNTALRAGLNTANGHVTYEAVARDLGYEYVPAEKALQDESSVAGA
As for B1, the “growth of glycine auxotroph strain with glycolate” value in the series with glyoxylate was “started to grow”.

B2: StEutE: acyl-CoA reductase, Salmonella typhymurium, Uniprot P41793 (protein, UniProt P41793 1-467, looked up)
Acetaldehyde dehydrogenase …: MNQQDIEQVVKAVLLKMKDSSQPASTVHEMGVFASLDDAVAAAKRAQQGLKSVAMRQLAIHAIREAGEKHARELAELAVSETGMGRVDDKFAKNVAQARGTPGVECLSPQVLTGDNGLTLIENAPWGVVASVTPSTNPAATVINNAISLIAAGNSVVFAPHPAAKKVSQRAITLLNQAVVAAGGPENLLVTVANPDIETAQRLFKYPGIGLLVVTGGEAVVDAARKHTNKRLIAAGAGNPPVVVDETADLPRAAQSIVKGASFDNNIICADEKVLIVVDSVADELMRLMEGQHAVKLTAAQAEQLQPVLLKNIDERGKGTVSRDWVGRDAGKIAAAIGLNVPDQTRLLFVETPANHPFAVTEMMMPVLPVVRVANVEEAIALAVQLEGGCHHTAAMHSRNIDNMNQMANAIDTSIFVKNGPCIAGLGLGGEGWTTMTITTPTGEGVTSARTFVRLRRCVLVDAFRIV
As for B2, the “performance in isobutene glycol production” value in the series with 2-hydroxyisobutyryl-CoA is on record as “best performance”.

B3: OfFrc: acyl-CoA transferase (ACT), Oxalobacter formigenes, Uniprot O06644 (protein, UniProt O06644 2-428, looked up)
Formyl-CoA:oxalate …: TKPLDGINVLDFTHVQAGPACTQMMGFLGANVIKIERRGSGDMTRGWLQDKPNVDSLYFTMFNCNKRSIELDMKTPEGKELLEQMIKKADVMVENFGPGALDRMGFTWEYIQELNPRVILASVKGYAEGHANEHLKVYENVAQCSGGAAATTGFWDGPPTVSGAALGDSNSGMHLMIGILAALEMRHKTGRGQKVAVAMQDAVLNLVRIKLRDQQRLERTGILAEYPQAQPNFAFDRDGNPLSFDNITSVPRGGNAGGGGQPGWMLKCKGWETDADSYVYFTIAANMWPQICDMIDKPEWKDDPAYNTFEGRVDKLMDIFSFIETKFADKDKFEVTEWAAQYGIPCGPVMSMKELAHDPSLQKVGTVVEVVDEIRGNHLTVGAPFKFSGFQPEITRAPLLGEHTDEVLKELGLDDAKIKELHAKQVV
On to B3, for which, in the series on formate, the “performance on formate activation (2HIB)” value was “better performance”.
